Data reported in the RNAGym collection of RNA variant scans (doi:10.7554/elife.80360).

B1: Hairpin Ribozyme (parent)
chain: GUCCUCUUUCACGUGCGCGUGAAAGAGAGAAGUGAACCAGAGAAACACACGUUGUGGUAUAUUACCUGGUA

Variants of: B1
Test: self-cleavage, relative activity (ratio to wild type); higher = more cleavage; co-transcriptional

Q: Which self-cleavage does the source give for GUCCUCUUUCACGUGCGCGUGAUAGAGAGAAGUGAACCAGAGAAACCCACGUUGUGGUAUAUUACCUGGUA [A23U A47C] here?
A: 0.386

Q: For GUCCUCUUUCACGUGCGCGUGAUAGAGAGAAGUGAACCAGAGAAACACACGGUGUGGUAUAUUACCUGGUA [A23U U52G], which self-cleavage is on record?
A: 0.753

Q: For GUCCUCUUUCACGUGCGCGUGAACGAGAGAAGUGAACCAGAGAAACACACGUUGUGGUAUAUUACCUGGUG [A24C A71G], which self-cleavage is on record?
A: 0.99

Q: With GUCCUCUUUCACGUGCGCGUGAACGAGAGAAUUGAACCAGAGAAACACACGUUGUGGUAUAUUACCUGGUA [A24C G32U] as the variant, how does the self-cleavage read?
A: 0.166

Q: With GUCCUCUUUCACGUGCGCGUGAUAGAGAGAAGUGAAUCAGAGAAACACACGUUGUGGUAUAUUACCUGGUA [A23U C37U] as the variant, how does the self-cleavage read?
A: 0.594

Q: With GUCCUCUUUCACGUGCGCGUGAACGAGAGAAGUGAACCAGAGAAACGCACGUUGUGGUAUAUUACCUGGUA [A24C A47G] as the variant, how does the self-cleavage read?
A: 0.113

Q: Which self-cleavage does the source give for GUCCUCUUUCACGUGCGCGUGAACGAGAGAAGUGAACCAGAGAAACCCACGUUGUGGUAUAUUACCUGGUA [A24C A47C] here?
A: 0.272

Q: Which self-cleavage does the source give for GUCCUCUUUCACGUGCGCGUGAACGAGAGAAGUGAACCAGAGAAACACACGUUGUGGUAUAUUACUUGGUA [A24C C66U] here?
A: 0.395

Q: With GUCCUCUUUCACGUGCGCGUGAUAGAGAGAAGUGAACCAGAGAAACACACAUUGUGGUAUAUUACCUGGUA [A23U G51A] as the variant, how does the self-cleavage read?
A: 0.844

Q: Which self-cleavage does the source give for GUCCUCUUUCACGUGCGCGUGAUAGAGAGAAGUGAACCAGAGAAACACACCUUGUGGUAUAUUACCUGGUA [A23U G51C] here?
A: 0.832

Q: With GUCCUCUUUCACGUGCGCGUGAUAGAGAGAAGUGAACCAGAGAAACACUCGUUGUGGUAUAUUACCUGGUA [A23U A49U] as the variant, how does the self-cleavage read?
A: 0.193

Q: With GUCCUCUUUCACGUGCGCGUGAUAGAGAGAAGUGAACCAGAGAAACACACGUUGUGGUAUCUUACCUGGUA [A23U A61C] as the variant, how does the self-cleavage read?
A: 0.126

Q: For GUCCUCUUUCACGUGCGCGUGAUAGAGAGAAGUGAACCAGAGAAACACACGUUGUGGUAUGUUACCUGGUA [A23U A61G], which self-cleavage is on record?
A: 0.125

Q: For GUCCUCUUUCACGUGCGCGUGAUAGAGAGAAGUGAACCAGAGAAUCACACGUUGUGGUAUAUUACCUGGUA [A23U A45U], which self-cleavage is on record?
A: 0.2

Q: For GUCCUCUUUCACGUGCGCGUGAUAGAGAGAAGUGAACCAGAGAAACACACGUUGUGGUAUAUCACCUGGUA [A23U U63C], which self-cleavage is on record?
A: 0.182

Q: For GUCCUCUUUCACGUGCGCGUGAUAGAGAGAAGUGAACCAGAGAAACACACGUUGUGGUAUAUAACCUGGUA [A23U U63A], which self-cleavage is on record?
A: 0.142

Q: For GUCCUCUUUCACGUGCGCGUGAUAGAGAGAAGUGAACCAGAGAAACACACGUUGUGGUAUAUUACCUGGUC [A23U A71C], which self-cleavage is on record?
A: 1.28

Q: For GUCCUCUUUCACGUGCGCGUGAACGAGCGAAGUGAACCAGAGAAACACACGUUGUGGUAUAUUACCUGGUA [A24C A28C], which self-cleavage is on record?
A: 0.349

Q: With GUCCUCUUUCACGUGCGCGUGAACGAAAGAAGUGAACCAGAGAAACACACGUUGUGGUAUAUUACCUGGUA [A24C G27A] as the variant, how does the self-cleavage read?
A: 0.341

Q: For GUCCUCUUUCACGUGCGCGUGAACGAGAGAAGUGAACCAGAGAAACACUCGUUGUGGUAUAUUACCUGGUA [A24C A49U], which self-cleavage is on record?
A: 0.119

Q: Which self-cleavage does the source give for GUCCUCUUUCACGUGCGCGUGAACGAGAGAAGUGAACCAGAGAAACACACGUUAUGGUAUAUUACCUGGUA [A24C G54A] here?
A: 0.547

Q: For GUCCUCUUUCACGUGCGCGUGAACGAGAGAAGUGAACCAGAGAAACACACGUUGUGGUAUAUUCCCUGGUA [A24C A64C], which self-cleavage is on record?
A: 0.192

Q: Which self-cleavage does the source give for GUCCUCUUUCACGUGCGCGUGAACGAGAGAAGUGAACCAGAGAUACACACGUUGUGGUAUAUUACCUGGUA [A24C A44U] here?
A: 0.17

Q: For GUCCUCUUUCACGUGCGCGUGAUAGAGAGAAGUGAACCAGAGAAACACACGUUGCGGUAUAUUACCUGGUA [A23U U55C], which self-cleavage is on record?
A: 0.358

Q: For GUCCUCUUUCACGUGCGCGUGAUAGAGAGAAGUGAACAAGAGAAACACACGUUGUGGUAUAUUACCUGGUA [A23U C38A], which self-cleavage is on record?
A: 0.17

Q: With GUCCUCUUUCACGUGCGCGUGAUAGAGAGAAGUGAACGAGAGAAACACACGUUGUGGUAUAUUACCUGGUA [A23U C38G] as the variant, how does the self-cleavage read?
A: 0.167

Q: With GUCCUCUUUCACGUGCGCGUGAACGAGAGAAGUCAACCAGAGAAACACACGUUGUGGUAUAUUACCUGGUA [A24C G34C] as the variant, how does the self-cleavage read?
A: 1.07

Q: Which self-cleavage does the source give for GUCCUCUUUCACGUGCGCGUGAACGAGAGAAGUUAACCAGAGAAACACACGUUGUGGUAUAUUACCUGGUA [A24C G34U] here?
A: 1.43

Q: For GUCCUCUUUCACGUGCGCGUGAACGAGAGAAGUGAACCAGAGAAACACACGGUGUGGUAUAUUACCUGGUA [A24C U52G], which self-cleavage is on record?
A: 1.08

Q: Which self-cleavage does the source give for GUCCUCUUUCACGUGCGCGUGAACGAGAGAAGUGAACCAGAGAAACACACGAUGUGGUAUAUUACCUGGUA [A24C U52A] here?
A: 1.05

Q: With GUCCUCUUUCACGUGCGCGUGAUAGAGAGAAGUGAACCAGAAAAACACACGUUGUGGUAUAUUACCUGGUA [A23U G42A] as the variant, how does the self-cleavage read?
A: 0.214

Q: For GUCCUCUUUCACGUGCGCGUGAACGAGAGAAGUGAACCAGAGAAACACACGUUGAGGUAUAUUACCUGGUA [A24C U55A], which self-cleavage is on record?
A: 0.267

Q: For GUCCUCUUUCACGUGCGCGUGAACGAGAGAAGUGAACCAGAGAAACACACGUUGCGGUAUAUUACCUGGUA [A24C U55C], which self-cleavage is on record?
A: 0.305

Q: Which self-cleavage does the source give for GUCCUCUUUCACGUGCGCGUGAACGAGAGAAGUGAACCAGAGUAACACACGUUGUGGUAUAUUACCUGGUA [A24C A43U] here?
A: 0.115

Q: Which self-cleavage does the source give for GUCCUCUUUCACGUGCGCGUGAUAGAGAGAAGUGAACCAGAGAAACACACGUUGUUGUAUAUUACCUGGUA [A23U G56U] here?
A: 0.184

Q: With GUCCUCUUUCACGUGCGCGUGAUAGAGAGAAGUGAACCAGAGAAACACACGUUGUAGUAUAUUACCUGGUA [A23U G56A] as the variant, how does the self-cleavage read?
A: 0.237

Q: For GUCCUCUUUCACGUGCGCGUGAACGAGAGAAGAGAACCAGAGAAACACACGUUGUGGUAUAUUACCUGGUA [A24C U33A], which self-cleavage is on record?
A: 0.2

Q: Which self-cleavage does the source give for GUCCUCUUUCACGUGCGCGUGAUAGAGAGAAGUGAACCAGAGAAACACACGUUGUGGUAUAAUACCUGGUA [A23U U62A] here?
A: 0.106
